Results as given in the supplement of paper PMC5998384.

Experiments:
HeLa Kyoto [1] = assay: solubility in G1/S (NP-40 vs SDS abundance) (log2 ratio); higher = more soluble; details: cell cycle stage: G1/S
HeLa Kyoto [2] = assay: solubility change mitosis vs G1/S (difference of NP-40 vs SDS log2 ratios) (log2 ratio difference); higher = more soluble in mitosis
HeLa Kyoto [3] = assay: thermal stability score vs G1/S (z-score of summed log2 fold changes over temperatures); higher = more thermally stable than in G1/S
[4] = cell cycle stage: early G1 (4.5 h after nocodazole release)
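Throughout, for solubility change mitosis vs G1/S (difference of NP-40 vs SDS log2 ratios): synchronized HeLa Kyoto cells (double thymidine block for G1/S, nocodazole release for mitosis), protein amounts in NP-40 versus SDS lysates quantified by mass spectrometry, three biological replicates.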
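Throughout, for solubility in G1/S (NP-40 vs SDS abundance): HeLa Kyoto cells arrested at G1/S by double thymidine block, proteins quantified by TMT10plex mass spectrometry in mild NP-40 versus SDS extracts, three biological replicates.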
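Throughout, for thermal stability score vs G1/S (z-score of summed log2 fold changes over temperatures): synchronized HeLa Kyoto cells, proteins quantified by TMT10plex mass spectrometry, three biological replicates, mitosis taken 0.5 h after nocodazole release, G1/S directly after double thymidine block.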

Row | Substance | solubility in G1/S (log2) (HeLa Kyoto [1]) | solubility change mitosis (log2) (HeLa Kyoto [2]) | thermal stability score (HeLa Kyoto [3]; [4]) | thermal stability score (HeLa Kyoto [3]; cell cycle stage: mitosis)
1 | MASSSGSSPRPAPDENEFPFGCPPTVCQDPKEPRALCCAGCLSENPRNGEDQICPKCRGEDLQSISPGSRLRTQEKAHPEVAEAGIGCPFAGVGCSFKGSPQSVQEHEVTSQTSHLNLLLGFMKQWKARLGCGLESGPMALEQNLSDLQLQAAVEVAGDLEVDCYRAPCSESQEELALQHFMKEKLLAELEGKLRVFENIVAVLNKEVEASHLALATSIHQSQLDRERILSLEQRVVELQQTLAQKDQALGKLEQSLRLMEEASFDGTFLWKITNVTRRCHESACGRTVSLFSPAFYTAKYGYKLCLRLYLNGDGTGKRTHLSLFIVIMRGEYDALLPWPFRNKVTFMLLDQNNREHAIDAFRPDLSSASFQRPQSETNVASGCPLFFPLSKLQSPKHAYVKDDTMFLKCIVETST [TRAF1] | 0.254 | -0.305 | – | –
2 | MHGHGGYDSDFSDDERCGESSKRKKRTVEDDLLLQKPFQKEKHGKVAHKQVAAELLDREEARNRRFHLIAMDAYQRHTKFVNDYILYYGGKKEDFKRLGENDKTDLDVIRENHRFLWNEEDEMDMTWEKRLAKKYYDKLFKEYCIADLSKYKENKFGFRWRVEKEVISGKGQFFCGNKYCDKKEGLKSWEVNFGYIEHGEKRNALVKLRLCQECSIKLNFHHRRKEIKSKKRKDKTKKDCEESSHKKSRLSSAEEASKKKDKGHSSSKKSEDSLLRNSDEEESASESELWKGPLPETDEKSQEEEFDEYFQDLFL [FRA10AC1] | -0.47 | 0.365 | – | –
3 | MEGRPPPEGRPPPRPRTGRAPRGRRRAVFAAVLHWSHITHLFENDRHFSHLSTLEREMAFRTEMGLYYSYFKTIVEAPSFLNGVWMIMNDKLTEYPLVINTLKRFNLYPEVILASWYRIYTKIMDLIGIQTKICWTVTRGEGLSPIESCEGLGDPACFYVAVIFILNGLMMALFFIYGTYLSGSRLGGLVTVLCFFFNHGECTRVMWTPPLRESFSYPFLVLQMLLVTHILRATKLYRGSLIALCISNVFFMLPWQFAQFVLLTQIASLFAVYVVGYIDICKLRKIIYIHMISLALCFVLMFGNSMLLTSYYASSLVIIWGILAMKPHFLKINVSELSLWVIQGCFWLFGTVILKYLTSKIFGIADDAHIGNLLTSKFFSYKDFDTLLYTCAAEFDFMEKETPLRYTKTLLLPVVLVVFVAIVRKIISDMWGVLAKQQTHVRKHQFDHGELVYHALQLLAYTALGILIMRLKLFLTPHMCVMASLICSRQLFGWLFCKVHPGAIVFAILAAMSIQGSANLQTQWNIVGEFSNLPQEELIEWIKYSTKPDAVFAGAMPTMASVKLSALRPIVNHPHYEDAGLRARTKIVYSMYSRKAAEEVKRELIKLKVNYYILEESWCVRRSKPGCSMPEIWDVEDPANAGKTPLCNLLVKDSKPHFTTVFQNSVYKVLEVVKE [DPY19L1] | -0.264 | 0.0231 | – | –
4 | MSYGRPPPDVEGMTSLKVDNLTYRTSPDTLRRVFEKYGRVGDVYIPRDRYTKESRGFAFVRFHDKRDAEDAMDAMDGAVLDGRELRVQMARYGRPPDSHHSRRGPPPRRYGGGGYGRRSRSPRRRRRSRSRSRSRSRSRSRSRYSRSKSRSRTRSRSRSTSKSRSARRSKSKSSSVSRSRSRSRSRSRSRSPPPVSKRESKSRSRSKSPPKSPEEEGAVSS [SRSF2] | – | 0.24 | -2.71 | -5.51
5 | MMCGAPSATQPATAETQHIADQVRSQLEEKENKKFPVFKAVSFKSQVVAGTNYFIKVHVGDEDFVHLRVFQSLPHENKPLTLSNYQTNKAKHDELTYF [CSTB] | – | -0.077 | -2.35 | -3.83
6 | MTKDKNSPGLKKKSQSVDINAPGFNPLAGAGKQTPQASKPPAPKTPIIEEEQNNAANTQKHPSRRSELKRFYTIDTGQKKTLDKKDGRRMSFQKPKGTIEYTVESRDSLNSIALKFDTTPNELVQLNKLFSRAVVTGQVLYVPDPEYVSSVESSPSLSPVSPLSPTSSEAEFDKTTNPDVHPTEATPSSTFTGIRPARVVSSTSEEEEAFTEKFLKINCKYITSGKGTVSGVLLVTPNNIMFDPHKNDPLVQENGCEEYGIMCPMEEVMSAAMYKEILDSKIKESLPIDIDQLSGRDFCHSKKMTGSNTEEIDSRIRDAGNDSASTAPRSTEESLSEDVFTESELSPIREELVSSDELRQDKSSGASSESVQTVNQAEVESLTVKSESTGTPGHLRSDTEHSTNEVGTLCHKTDLNNLEMAIKEDQIADNFQGISGPKEDSTSIKGNSDQDSFLHENSLHQEESQKENMPCGETAEFKQKQSVNKGKQGKEQNQDSQTEAEELRKLWKTHTMQQTKQQRENIQQVSQKEAKHKITSADGHIESSALLKEKQRHRLHKFLCLRVGKPMRKTFVSQASATMQQYAQRDKKHEYWFAVPQERTDHLYAFFIQWSPEIYAEDTGEYTREPGFIVVKKIEESETIEDSSNQAAAREWEVVSVAEYHRRIDALNTEELRTLCRRLQITTREDINSKQVATVKADLESESFRPNLSDPSELLLPDQIEKLTKHLPPRTIGYPWTLVYGTGKHGTSLKTLYRTMTGLDTPVLMVIKDSDGQVFGALASEPLKVSDGFYGTGETFVFTFCPEFEVFKWTGDNMFFIKGDMDSLAFGGGGGEFALWLDGDLYHGRSHSCKTFGNRTLSKKEDFFIQDIEIWAFE [OXR1] | – | -0.176 | -0.363 | -2.03
7 | MAQPGTLNLNNEVVKMRKEVKRIRVLVIRKLVRSVGRLKSKKGTEDALLKNQRRAQRLLEEIHAMKELKPDIVTKSALGDDINFEKIFKKPDSTATERAIARLAVHPLLKKKIDVLKAAVQAFKEARQNVAEVESSKNASEDNHSENTLYSNDNGSNLQREATVISEQKVKETKILAKKPIHNSKEKIAKMEHGPKAVTIANSPSKPSEKDSVVSLESQKTPADPKLKTLSQTKKNKGSDSSLSGNSDGGEEFCEEEKEYFDDSTEERFYKQSSMSEDSDSGDDFFIGKVRRTRKKESSCHSSVKEQKPLEKVFLKEDTGETHGDTRNDKIKPSTETRKLESVFFHSLSGSKSSRRNFKEQAPKTRSLDFPQNEPQIKNQFNKKLSGRLENTKQQLQLPLHPSWEASRRRKEQQSNIAVFQGKKITFDD [SRFBP1] | – | 0.584 | -0.14 | -0.669
8 | LDHA | – | -0.0758 | – | –
9 | RPS28 | – | 0.73 | – | –
10 | HIST1H4A | – | 0.331 | – | –
11 | MRPS11 | – | -0.0467 | – | –
12 | RPL3 | – | 0.667 | – | –
13 | MRPS35 | – | 0.0565 | – | –
14 | PRKACB | – | -0.134 | – | –
15 | RPS16 | – | 0.511 | – | –
16 | DTX3L | – | 0.0969 | – | –
17 | MALSKRELDELKPWIEKTVKRVLGFSEPTVVTAALNCVGKGMDKKKAADHLKPFLDDSTLRFVDKLFEAVEEGRSSRHSKSSSDRSRKRELKEVFGDDSEISKESSGVKKRRIPRFEEVEEEPEVIPGPPSESPGMLTKLQIKQMMEAATRQIEERKKQLSFISPPTPQPKTPSSSQPERLPIGNTIQPSQAATFMNDAIEKARKAAELQARIQAQLALKPGLIGNANMVGLANLHAMGIAPPKVELKDQTKPTPLILDEQGRTVDATGKEIELTHRMPTLKANIRAVKREQFKQQLKEKPSEDMESNTFFDPRVSIAPSQRQRRTFKFHDKGKFEKIAQRLRTKAQLEKLQAEISQAARKTGIHTSTRLALIAPKKELKEGDIPEIEWWDSYIIPNGFDLTEENPKREDYFGITNLVEHPAQLNPPVDNDTPVTLGVYLTKKEQKKLRRQTRREAQKELQEKVRLGLMPPPEPKVRISNLMRVLGTEAVQDPTKVEAHVRAQMAKRQKAHEEANAARKLTAEQRKVKKIKKLKEDISQGVHISVYRVRNLSNPAKKFKIEANAGQLYLTGVVVLHKDVNVVVVEGGPKAQKKFKRLMLHRIKWDEQTSNTKGDDDEESDEEAVKKTNKCVLVWEGTAKDRSFGEMKFKQCPTENMAREHFKKHGAEHYWDLALSESVLESTD [PRPF3] | – | 0.331 | 0.798 | 3.15
18 | NAA40 | – | 0.145 | – | –
19 | MRPL1 | – | -0.101 | – | –
20 | CTR9 | – | -0.0445 | – | –
21 | JMJD6 | – | -0.18 | – | –
22 | RPL5 | – | 0.442 | – | –
23 | MRPL28 | – | 0.00818 | – | –
24 | RPL12 | – | 0.659 | – | –
25 | MRPS23 | – | 0.188 | – | –
26 | RPS15 | – | 0.616 | – | –
27 | RPS15A | – | 0.424 | – | –
28 | ACTR3 | – | -0.0203 | – | –
29 | RPL21 | – | 0.856 | – | –
30 | SUPT6H | – | 0.0526 | – | –
